Data: the supplement of paper PMC10126150
± gives the standard deviation of the averaged measurements.

Tested on: ATP
Test: switch fluorescence ratio, 500 uM ATP over buffer (Cy3 cluster intensity, sum of 5 cycles each) (fold (ratio)); higher = stronger signal-on switching upon ATP binding; sequences stand for … in TCGTCGGCAGCGTCAGATGTGTATAAGAGACAGTTTTTTTTTTTTTTTTTTTTTTTTT…TC
Details: aptamer strand: ATP DNA aptamer (quencher-CACCTGGGGGAGTATTGCGGAGGAAGG + anchor), 100 nM annealed; ATP concentration: 500 uM
How it was run: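 The fluorescence ratio divides summed target-cycle Cy3 intensity by summed buffer-cycle Cy3 intensity for each cluster and is averaged per switch-domain sequence. Cy3-labelled switching-strand clusters on a modified Illumina MiSeq flow-cell were annealed to 100 nM quencher-labelled ATP aptamer, then imaged in selection buffer and again after 15 min with 500 uM ATP at 22 °C. Five such cycles were run, with NaOH stripping and re-annealing between them, and clusters outside 100-1000 RFU were excluded.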
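Note: ATP exposure 15 min at 22 °C before imaging.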

Sequence	switch fluorescence ratio
GGTTTGGGGC	1.03 ± 0.074
GGTTTGGGTG	0.995 ± 0.04
GGTTTTAGGT	0.988 ± 0.035
GGTTTTATGA	1.002 ± 0.0062
GGTTTTGGGC	1.02 ± 0.042
GGTTTTGTAA	0.982 ± 0.018
GGTTTTGTTC	1.09 ± 0.11
GGTTTTGTTT	0.9996 ± 0.0075
GGTTTTTAAG	0.995 ± 0.023
GGTTTTTACA	0.981 ± 0.024
GGTTTTTATT	0.992 ± 0.0092
GGTTTTTCGG	1.04 ± 0.014
GGTTTTTGAG	0.9564 ± 0.0045
GGTTTTTGTA	0.995 ± 0.025
GGTTTTTTCT	1.03 ± 0.088
GTAAAAAGAG	1 ± 0.011
GTAAAAGTTG	1 ± 0.026
GTAAAGAAAA	1.05 ± 0.081
GTAAAGTTTT	0.991 ± 0.018
GTAAATTAGT	1.02 ± 0.04
GTAAATTATG	0.986 ± 0.018
GTAAATTGTG	1.01 ± 0.047
GTAAATTTTT	1.01 ± 0.017
GTAACTGCAG	0.993 ± 0.051
GTAAGATGTG	1.03 ± 0.028

Sequence	switch fluorescence ratio
GTAAGGAAAG	1.04 ± 0.062
GTAAGGATGT	0.988 ± 0.038
GTAAGGCGCA	0.9885 ± 0.0086
GTAAGGGTTG	0.961 ± 0.012
GTAAGTGAGT	0.994 ± 0.037
GTAATAATGG	0.988 ± 0.053
GTAATAGAGG	0.9774 ± 0.0096
GTAATAGTTT	1 ± 0.036
GTAATATTTC	0.992 ± 0.027
GTAATGGGCA	1.03 ± 0.054
GTAATTATGT	1.02 ± 0.016
GTAATTGGAG	0.992 ± 0.016
GTAATTTGTT	1.01 ± 0.014
GTACCTATCG	1.01 ± 0.03
GTACGAAGTT	0.973 ± 0.013
GTACGAGGGG	0.992 ± 0.016
GTACGCGGAC	1.07 ± 0.022
GTACTGTCTC	0.9929 ± 0.0049
GTACTTGGTC	1.03 ± 0.048
GTAGAAACGC	0.998 ± 0.01
GTAGAAAGGA	2.3 ± 1.8
GTAGCTGCGG	1.02 ± 0.038
GTAGCTTTGG	1.04 ± 0.027
GTAGGAAGTG	0.9935 ± 0.0091
GTAGGACTTG	0.953 ± 0.025

Sequence	switch fluorescence ratio
GTAGGAGGAG	0.991 ± 0.032
GTAGGCATGG	1 ± 0.029
GTAGGGAGTT	0.977 ± 0.012
GTAGGGGCGG	1.0124 ± 0.00012
GTAGGGGGAC	1.05 ± 0.099
GTAGGGTAAG	0.988 ± 0.039
GTAGTAAGGC	2.23 ± 0.54
GTAGTACCGG	1.02 ± 0.028
GTAGTAGGGC	1.06 ± 0.016
GTAGTAGGGG	0.999 ± 0.015
GTAGTATGAG	0.999 ± 0.014
GTAGTATGCA	1.01 ± 0.02
GTAGTGAGCT	0.999 ± 0.05
GTAGTGGCGA	1.04 ± 0.026
GTAGTTATGG	1.04 ± 0.03
GTAGTTTTGT	0.987 ± 0.032
GTATAAACCC	1.03 ± 0.019
GTATAATGAT	0.977 ± 0.03
GTATATCTGT	1.01 ± 0.052
GTATCATGCC	1.01 ± 0.011
GTATCCAGGG	1.13 ± 0.036
GTATCTTGGG	1.04 ± 0.042
GTATGATTCG	0.9843 ± 0.0051
GTATGGGGGG	0.985 ± 0.026
GTATGGTCGG	0.9991 ± 0.0074

Sequence	switch fluorescence ratio
GTATGTACTG	1.04 ± 0.04
GTATGTTGGG	1.08 ± 0.045
GTATTCAGTA	0.995 ± 0.022
GTATTCGTTT	1 ± 0.028
GTATTGCCAG	0.995 ± 0.029
GTATTGGGGC	0.9807 ± 0.0029
GTATTTCATA	1.01 ± 0.0031
GTATTTTTAG	0.993 ± 0.033
GTCACCCTTT	1.01 ± 0.014
GTCACCGACT	1 ± 0.013
GTCAGAGAGT	1.02 ± 0.013
GTCAGGATTT	0.9925 ± 0.0087
GTCAGGCTGA	0.97427 ± 0.00022
GTCAGGGCGA	0.9931 ± 0.0023
GTCAGGGGGT	1.04 ± 0.068
GTCAGGGTAC	1.09 ± 0.072
GTCAGTGAAT	0.988 ± 0.057
GTCATAGTGG	0.9804 ± 0.003
GTCATTTAAG	0.991 ± 0.019
GTCCAAGGGG	1.04 ± 0.032
GTCCGAAGGC	0.988 ± 0.014
GTCCGGCTCG	0.9897 ± 0.0011
GTCCTTTGCC	1.06 ± 0.011
GTCGAAAGGA	0.9634 ± 0.0078
GTCGAGGAAT	1.003 ± 0.0092

Sequence	switch fluorescence ratio
GTCGAGGGGA	1.01 ± 0.035
GTCGATTTAT	0.986 ± 0.045
GTCGCCGGGT	0.994 ± 0.026
GTCGCTTAGT	0.973 ± 0.018
GTCGGACATG	0.993 ± 0.073
GTCGGATAGT	0.996 ± 0.013
GTCGGCAGGT	0.994 ± 0.015
GTCGGCATGG	1.07 ± 0.059
GTCGGGAGGC	1.02 ± 0.022
GTCGGGATAT	1.03 ± 0.018
GTCGGGGAGG	1.04 ± 0.031
GTCGGGGTTA	0.989 ± 0.036
GTCGGTAAAC	1.06 ± 0.014
GTCGGTACGG	1 ± 0.026
GTCGGTATTT	0.986 ± 0.03
GTCGGTTGGG	0.99 ± 0.026
GTCGTAGCTT	1.058 ± 0.0089
GTCGTATAGG	0.978 ± 0.023
GTCGTATGAT	0.9993 ± 0.0091
GTCGTGTGGG	0.996 ± 0.0025
GTCGTTTGGA	1.01 ± 0.035
GTCTAGGGGG	1.05 ± 0.089
GTCTATATGG	0.997 ± 0.032
GTCTCAAGTT	1.02 ± 0.011
GTCTCTGGGG	1.08 ± 0.083

Sequence	switch fluorescence ratio
GTCTGGGCGG	0.9919 ± 0.0031
GTCTGGGGTG	1.04 ± 0.021
GTCTGGTTGA	1.02 ± 0.033
GTCTGTGGGT	0.972 ± 0.06
GTCTTTAACT	0.982 ± 0.059
GTCTTTTAGG	0.9981 ± 0.0086
GTCTTTTGTA	0.983 ± 0.04
GTCTTTTTTT	0.96 ± 0.045
GTGAAAACCG	1.03 ± 0.062
GTGAAAAGGC	0.9862 ± 0.0032
GTGAAGAAGG	1.13 ± 0.2
GTGACAATTT	0.998 ± 0.069
GTGACAGGTC	0.974 ± 0.038
GTGACGGGGG	1.02 ± 0.029
GTGAGCTGAT	1.023 ± 0.0081
GTGAGCTTGT	1.02 ± 0.013
GTGAGGGAGC	1.12 ± 0.27
GTGAGGGGGA	1 ± 0.033
GTGAGGGGGC	0.993 ± 0.1
GTGAGGGGTG	0.996 ± 0.032
GTGAGTAATT	1.02 ± 0.078
GTGAGTATCG	0.968 ± 0.0098
GTGAGTGCCT	1.006 ± 0.01
GTGAGTGTAT	0.9682 ± 0.0092
GTGATAACGG	1.008 ± 0.0091

Sequence	switch fluorescence ratio
GTGATACCGT	0.99 ± 0.0087
GTGATAGGGA	1 ± 0.013
GTGATAGTGG	0.9385 ± 0.0022
GTGATATAGG	1.03 ± 0.041
GTGATATGAG	1.01 ± 0.036
GTGATGACAT	1 ± 0.013
GTGATGGGTT	0.953 ± 0.014
GTGATGGTT	0.984 ± 0.03
GTGCAACTAC	2.93 ± 0.32
GTGCAAGGCG	0.988 ± 0.032
GTGCAGGGGC	1.04 ± 0.019
GTGCATGGGG	1.02 ± 0.0056
GTGCCGGGTT	1.03 ± 0.066
GTGCGGGGCG	1.02 ± 0.067
GTGCTACGTG	0.966 ± 0.059
GTGCTGCCGG	1.01 ± 0.049
GTGGAAATAG	1.01 ± 0.05
GTGGAAGCCG	1.013 ± 0.0034
GTGGAAGCTT	1.01 ± 0.041
GTGGACAACG	0.9924 ± 0.0099
GTGGAGAGGG	0.993 ± 0.038
GTGGAGGGTT	1.03 ± 0.04
GTGGATAATG	0.996 ± 0.056
GTGGATATGG	0.995 ± 0.043
GTGGATTCAC	0.98 ± 0.0096

Sequence	switch fluorescence ratio
GTGGATTGGT	0.974 ± 0.013
GTGGCCATTA	0.995 ± 0.02
GTGGCCGGGT	1.03 ± 0.0047
GTGGCGGATT	1.02 ± 0.013
GTGGCTAATT	1 ± 0.015
GTGGCTGTTT	1.02 ± 0.02
GTGGGAAAAA	1.01 ± 0.0085
GTGGGAAGGT	0.994 ± 0.038
GTGGGATAAT	1.02 ± 0.021
GTGGGATATA	0.995 ± 0.049
GTGGGATATT	0.9809 ± 0.0056
GTGGGATGTT	1.01 ± 0.015
GTGGGATTAT	1 ± 0.019
GTGGGCAGGT	0.988 ± 0.024
GTGGGCGGTC	0.995 ± 0.057
GTGGGCGTTT	1 ± 0.017
GTGGGGAAAG	0.99 ± 0.034
GTGGGGAAGG	1.02 ± 0.054
GTGGGGATGG	0.966 ± 0.024
GTGGGGATTG	0.9379 ± 0.0016
GTGGGGCAGT	0.996 ± 0.025
GTGGGGCGGG	0.999 ± 0.02
GTGGGGCTTA	0.994 ± 0.032
GTGGGGGAA	0.994 ± 0.034
GTGGGGGCGT	1 ± 0.026
